In US20250109190A1 (BYOMASS, published 2025):

T1: human GDF10 (human, UniProt P55107 369-478)
T1 sequence (looked up): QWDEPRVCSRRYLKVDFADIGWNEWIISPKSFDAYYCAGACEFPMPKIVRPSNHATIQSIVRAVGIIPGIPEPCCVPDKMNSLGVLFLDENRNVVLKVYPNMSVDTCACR

T2: BMP9 (UniProt Q9UK05 320-429)
T2 sequence (looked up): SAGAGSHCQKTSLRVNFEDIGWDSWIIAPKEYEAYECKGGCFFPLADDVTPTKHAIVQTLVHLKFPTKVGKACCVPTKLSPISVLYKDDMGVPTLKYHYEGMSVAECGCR

T3: GDF15 Fc (UniProt Q99988 197-308, limits assumed)
T3 construct: species not given; not shown: Fc part of the fusion
T3 sequence (looked up): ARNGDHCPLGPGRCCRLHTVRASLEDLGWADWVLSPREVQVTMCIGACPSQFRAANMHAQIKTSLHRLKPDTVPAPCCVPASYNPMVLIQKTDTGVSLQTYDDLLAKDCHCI

T4: BMP10 (UniProt O95393 317-424)
T4 sequence (looked up): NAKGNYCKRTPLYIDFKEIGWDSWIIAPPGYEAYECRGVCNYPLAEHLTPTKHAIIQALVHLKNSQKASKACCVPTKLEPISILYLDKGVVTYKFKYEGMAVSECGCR

T5: human GDNF (human, UniProt P39905 78-211, limits assumed)
T5 sequence (looked up): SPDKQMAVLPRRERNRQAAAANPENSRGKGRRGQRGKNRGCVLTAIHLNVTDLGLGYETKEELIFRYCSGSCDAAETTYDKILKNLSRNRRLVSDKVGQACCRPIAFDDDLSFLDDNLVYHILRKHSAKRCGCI

T6: Activin B (UniProt P09529 293-407)
T6 sequence (looked up): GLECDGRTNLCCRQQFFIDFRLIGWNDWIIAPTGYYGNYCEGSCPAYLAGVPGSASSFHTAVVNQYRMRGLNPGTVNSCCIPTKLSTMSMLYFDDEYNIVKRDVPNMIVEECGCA


Key:
Assay in all cases: BLI Octet; IgG, avid
[1] = molecular target: human GDF8 (human, UniProt O14793 267-375)
[2] = molecular target: T1, human GDF10
[3] = molecular target: T2, BMP9
[4] = molecular target: T3, GDF15 Fc
[5] = molecular target: T4, BMP10
[6] = molecular target: T5, human GDNF
[7] = molecular target: human GDF11 (human, UniProt O95390 299-407)
Chain of human GDF11 (O95390 299-407 limits assumed): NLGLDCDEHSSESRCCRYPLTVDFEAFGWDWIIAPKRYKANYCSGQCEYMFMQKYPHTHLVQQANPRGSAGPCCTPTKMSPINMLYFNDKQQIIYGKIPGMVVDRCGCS

[8] = molecular target: T6, Activin B

binding result [1]	binding result [2]	binding result [3]	binding result [4]	binding result [5]	binding result [6]	binding result [7]	binding result [8]	Binder
no binding (tested: 100 nM)	no binding (tested: 100 nM)	no binding (tested: 100 nM)	no binding (tested: 100 nM)	no binding (tested: 100 nM)	no binding (tested: 100 nM)	no binding (tested: 100 nM)	–	Antibody L (Clone L), IgG (antibody, V domains shown, IgG) VH: QVQLQESGPGLVKPSETLSLTCAVSGYSISSGYYWGWIRQPPGKGLEWIGSIYHSGSTYYNPSLKSRVTISVDTSKNQFSLKLSSVTAADTAVYYCAREAGSGYWYLSVYGMDVWGQGTTVTVSS VL: EIVLTQSPATLSVSPGERATLSCRASQSVSSNLAWYQQKPGQAPRLLIYGASTRATGIPARFSGSGSGTEFTLTISSLQSEDFAVYYCQQSDDWPWTFGGGTKVEIKR
no binding (tested: 100 nM)	no binding (tested: 100 nM)	no binding (tested: 100 nM)	no binding (tested: 100 nM)	no binding (tested: 100 nM)	no binding (tested: 100 nM)	no binding (tested: 100 nM)	–	Antibody P (Clone P), IgG (antibody, V domains shown, IgG) VH: QVQLVQSGAEVKKPGSSVKVSCKASGGTFDDYAISWVRQAPGQGLEWMGGIIPRFGIANYAQKFQGRVTITADESTSTAYMELSSLRSEDTAVYYCARPPSSGSDWGQGTLVTVSS VL: DIQMTQSPSSVSASVGDRVTITCRASQGIDSWLAWYQQKPGKAPKLLIYAASSLQSGVPSRFSGSGSGTDFTLTISSLQPEDFATYYCQQVHSFPITFGGGTKVEIKR
no binding (tested: 100 nM)	no binding (tested: 100 nM)	no binding (tested: 100 nM)	no binding (tested: 100 nM)	no binding (tested: 100 nM)	no binding (tested: 100 nM)	no binding (tested: 100 nM)	no binding (tested: 100 nM)	Antibody A (Clone A), IgG (antibody, V domains shown, IgG) VH: QVQLVQSGAEVKKPGASVKVSCKASGYTFTGYYMHWVRQAPGQGLEWMGSINPSSGGTNYAQKFQGRVTMTTDTSTSTAYMELRSLRSDDTAVYYCARARDIAAAGLGAFDYWGQGTLVTVSS VL: EIVLTQSPGTLSLSPGERATLSCRASQSVRSSYLAWYQQKPGQAPRLLIYGASSRATGIPDRFSGSGSGTDFTLTISRLEPEDFAVYYCQQYVSYPRTFGGGTKVEIKR
no binding (tested: 100 nM)	no binding (tested: 100 nM)	no binding (tested: 100 nM)	no binding (tested: 100 nM)	no binding (tested: 100 nM)	no binding (tested: 100 nM)	–	–	Antibody F (Clone F), IgG (antibody, V domains shown, IgG) VH: QVQLVQSGAEVKKPGASVKVSCKASGYTFTGYHIHWVRQVPGQGLEWMGVISAYSGDTNYAQKLQGRVTMTTDTSTSTAYMELRSLRSDDTAVYYCARARDIAALGLGAFDYWGQGTLVTVSS VL: EIVLTQSPATLSVSPGERATLSCRASQSVSSNLAWYQQKPGQAPRLLIYGASDRATGIPARFSGSGSGTEFTLTISSLQSEDFAVYYCIQYSNYPRTFGGGTKVEIKR
no binding (tested: 100 nM)	no binding (tested: 100 nM)	no binding (tested: 100 nM)	no binding (tested: 100 nM)	no binding (tested: 100 nM)	no binding (tested: 100 nM)	–	–	Antibody C (Clone C), IgG (antibody, V domains shown, IgG) VH: QVQLVQSGAEVKKPGASVKVSCKASGYTFPGYHMHWVRQAPGQGLEWMGVINPSSGDTNYAQKFQGRVTMTRDTSISTAYMELSRLRSDDTAVYYCARARDIAALGLGAFDYWGQGTLVTVSS VL: EIVLTQSPGTLSLSPGERATLSCRASQSVSSSYLAWYQQKPGQAPRLLIYGASSRAGGIPDRFSGSGSGTDFTLTISRLEPEDFAVYYCQQYVAYPRTFGGGTKVEIKR
no binding (tested: 100 nM)	no binding (tested: 100 nM)	no binding (tested: 100 nM)	no binding (tested: 100 nM)	no binding (tested: 100 nM)	no binding (tested: 100 nM)	no binding (tested: 100 nM)	–	Antibody H (Clone H), IgG (antibody, V domains shown, IgG) VH: QVQLVQSGAEVKKPGASVKVSCKASGYTFTGYHIHWVRQAPGQGLEWMGHISAYSGTTNYAQKLQGRVTMTTDTSTSTAYMELRSLRSDDTAVYYCARARDIAAAGLGAFDYWGQGTLVTVSS VL: EIVLTQSPGTLSLSPGERATLSCRASQSVRSSYLAWYQQKPGQAPRLLIYGASSRATGIPDRFSGSGSGTDFTLTISRLEPEDFAVYYCQQYSNYPRTFGGGTKVEIKR
no binding (tested: 100 nM)	no binding (tested: 100 nM)	no binding (tested: 100 nM)	no binding (tested: 100 nM)	no binding (tested: 100 nM)	no binding (tested: 100 nM)	–	–	Antibody B (Clone B), IgG (antibody, V domains shown, IgG) VH: QVQLVQSGAEVKKPGASVKVSCKASGYTFIGYDMHWVRQAPGQGLEWMGVINPSSGGTNYAQKFQGRVTMTRDTSISTAYMELSRLRSDDTAVYYCARARDIAALGLGAFDYWGQGTLVTVSS VL: not shown
no binding (tested: 100 nM)	no binding (tested: 100 nM)	no binding (tested: 100 nM)	no binding (tested: 100 nM)	no binding (tested: 100 nM)	no binding (tested: 100 nM)	–	–	Antibody D (Clone D), IgG (antibody, V domains shown, IgG) VH: QVQLVQSGAEVKKPGASVKVSCKASGYTFFGYSMHWVRQAPGQGLEWMGVINPSSGDTNYAQKFQGRVTMTRDTSISTAYMELSRLRSDDTAVYYCARARDIAALGLGAFDYWGQGTLVTVSS VL: not shown
no binding (tested: 100 nM)	no binding (tested: 100 nM)	no binding (tested: 100 nM)	no binding (tested: 100 nM)	no binding (tested: 100 nM)	no binding (tested: 100 nM)	–	–	Antibody E (Clone E), IgG (antibody, V domains shown, IgG) VH: QVQLVQSGAEVKKPGASVKVSCKASGYTFHGYNMHWVRQAPGQGLEWMGSINPYSGYTIYAQKFQGRVTMTRDTSISTAYMELSRLRSDDTAVYYCARARDIAAAGLGAFDYWGQGTLVTVSS VL: EIVLTQSPGTLSLSPGERATLSCRASQSVRSSYLAWYQQKPGQAPRLLIYGASSRATGIPDRFSGSGSGTDFTLTISRLEPEDFAVYYCQQYVSYPRTFGGGTKVEIKR
no binding (tested: 100 nM)	no binding (tested: 100 nM)	no binding (tested: 100 nM)	no binding (tested: 100 nM)	no binding (tested: 100 nM)	no binding (tested: 100 nM)	no binding (tested: 100 nM)	–	Antibody M (Clone M), IgG (antibody, V domains shown, IgG) VH: QLQLQESGPGLVKPSETLSLTCTVSGGSISSSDYYWGWIRQPPGKGLEWIGSIYYPANTYYNPSLKSRVTISVDTSKNQFSLKLSSVTAADTAVYYCARGYWNYGMDVWGQGTTVTVSS VL: not shown
no binding (tested: 100 nM)	no binding (tested: 100 nM)	no binding (tested: 100 nM)	no binding (tested: 100 nM)	no binding (tested: 100 nM)	no binding (tested: 100 nM)	no binding (tested: 100 nM)	–	Antibody N (Clone N), IgG (antibody, V domains shown, IgG) VH: QLQLQESGPGLVKPSETLSLTCTVSGGSISSSDYYWGWIRQPPGKGLEWIGSIYYPASTYYNPSLKSRVTISVDTSKNQFSLKLSSVTAADTAVYYCARGYWNYGMDVWGQGTTVTVSS VL: not shown
